B1: 4.1R135 (protein)
chain: MTTEKSLVTEAENSQHQQKEEGEEAINSGQQEPQQEESCQTAAEGDNWCEQKLKASNGDTPTHEDLTKNKERTSESRGLSRLFSSFLKRPKSQVSEEEGKEVESDKEKGEGGQKEIEFGTSLDEEIILKAPIAAPEPELKTDPSLDLHSLSSAETQPAQEELREDPDFEIKEGEGLEECSKIEVKEESPQSKAETELKASQKPIRKHRNMHCKVSLLDDTVYECVVEKHAKGQDLLKRVCEHLNLLEEDYFGLAIWDNATSKTWLDSAKEIKKQVRGVPWNFTFNVKFYPPDPAQLTEDITRYYLCLQLRQDIVAGRLPCSFATLALLGSYTIQSELGDYDPELHGVDYVSDFKLAPNQTKELEEKVMELHKSYRSMTPAQADLEFLENAKKLSMYGVDLHKAKDLEGVDIILGVCSSGLLVYKDKLRINRFPWPKVLKISYKRSSFFIKIRPGEQEQYESTIGFKLPSYRAAKKLWKVCVEHHTFFRLTSTDTIPKSKFLALGSKFRYSGRTQAQTRQASALIDRPAPHFERTASKRASRSLDGAAAVDSADRSPRPTSAPAITQGQVAEGGVLDASAKKTVVPKAQKETVKAEVKKEDEPPEQAEPEPTEAWKVEKTHIEVTVPTSNGDQTQKLAEKTEDLIRMRKKKRERLDGENIYIRHSNLMLEDLDKSQEEIKKHHASISELKKNFMESVPEPRPSEWDKRLSTHSPFRTLNINGQIPTGEGPPLVKTQTVTISDNANAVKSEIPTKDVPIVHTETKTITYEAAQTDDNSGDLDPGVLLTAQTITSETPSSTTTTQITKTVKGGISETRIEKRIVITGDADIDHDQVLVQAIKEAKEQHPDMSVTKVVVHQETEIADE
modifications: EGTA (no Ca2+)
B2: 4.1R135 (protein)
chain: MTTEKSLVTEAENSQHQQKEEGEEAINSGQQEPQQEESCQTAAEGDNWCEQKLKASNGDTPTHEDLTKNKERTSESRGLSRLFSSFLKRPKSQVSEEEGKEVESDKEKGEGGQKEIEFGTSLDEEIILKAPIAAPEPELKTDPSLDLHSLSSAETQPAQEELREDPDFEIKEGEGLEECSKIEVKEESPQSKAETELKASQKPIRKHRNMHCKVSLLDDTVYECVVEKHAKGQDLLKRVCEHLNLLEEDYFGLAIWDNATSKTWLDSAKEIKKQVRGVPWNFTFNVKFYPPDPAQLTEDITRYYLCLQLRQDIVAGRLPCSFATLALLGSYTIQSELGDYDPELHGVDYVSDFKLAPNQTKELEEKVMELHKSYRSMTPAQADLEFLENAKKLSMYGVDLHKAKDLEGVDIILGVCSSGLLVYKDKLRINRFPWPKVLKISYKRSSFFIKIRPGEQEQYESTIGFKLPSYRAAKKLWKVCVEHHTFFRLTSTDTIPKSKFLALGSKFRYSGRTQAQTRQASALIDRPAPHFERTASKRASRSLDGAAAVDSADRSPRPTSAPAITQGQVAEGGVLDASAKKTVVPKAQKETVKAEVKKEDEPPEQAEPEPTEAWKVEKTHIEVTVPTSNGDQTQKLAEKTEDLIRMRKKKRERLDGENIYIRHSNLMLEDLDKSQEEIKKHHASISELKKNFMESVPEPRPSEWDKRLSTHSPFRTLNINGQIPTGEGPPLVKTQTVTISDNANAVKSEIPTKDVPIVHTETKTITYEAAQTDDNSGDLDPGVLLTAQTITSETPSSTTTTQITKTVKGGISETRIEKRIVITGDADIDHDQVLVQAIKEAKEQHPDMSVTKVVVHQETEIADE
B3: 4.1R135 (protein)
chain: MTTEKSLVTEAENSQHQQKEEGEEAINSGQQEPQQEESCQTAAEGDNWCEQKLKASNGDTPTHEDLTKNKERTSESRGLSRLFSSFLKRPKSQVSEEEGKEVESDKEKGEGGQKEIEFGTSLDEEIILKAPIAAPEPELKTDPSLDLHSLSSAETQPAQEELREDPDFEIKEGEGLEECSKIEVKEESPQSKAETELKASQKPIRKHRNMHCKVSLLDDTVYECVVEKHAKGQDLLKRVCEHLNLLEEDYFGLAIWDNATSKTWLDSAKEIKKQVRGVPWNFTFNVKFYPPDPAQLTEDITRYYLCLQLRQDIVAGRLPCSFATLALLGSYTIQSELGDYDPELHGVDYVSDFKLAPNQTKELEEKVMELHKSYRSMTPAQADLEFLENAKKLSMYGVDLHKAKDLEGVDIILGVCSSGLLVYKDKLRINRFPWPKVLKISYKRSSFFIKIRPGEQEQYESTIGFKLPSYRAAKKLWKVCVEHHTFFRLTSTDTIPKSKFLALGSKFRYSGRTQAQTRQASALIDRPAPHFERTASKRASRSLDGAAAVDSADRSPRPTSAPAITQGQVAEGGVLDASAKKTVVPKAQKETVKAEVKKEDEPPEQAEPEPTEAWKVEKTHIEVTVPTSNGDQTQKLAEKTEDLIRMRKKKRERLDGENIYIRHSNLMLEDLDKSQEEIKKHHASISELKKNFMESVPEPRPSEWDKRLSTHSPFRTLNINGQIPTGEGPPLVKTQTVTISDNANAVKSEIPTKDVPIVHTETKTITYEAAQTDDNSGDLDPGVLLTAQTITSETPSSTTTTQITKTVKGGISETRIEKRIVITGDADIDHDQVLVQAIKEAKEQHPDMSVTKVVVHQETEIADE
modifications: Ca2+

Columns and labels:
Experiment in all cases: resonant mirror detection (IAsys)
CaM = CaM (Homo sapiens, UniProt P0DP23)
[1] = biological target: T1, GPCcyt cytoplasmic domain (Homo sapiens, UniProt P04921)
T1 chain: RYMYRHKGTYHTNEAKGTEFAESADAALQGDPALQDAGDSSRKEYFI

[2] = biological target: T2, band 3cyt cytoplasmic domain (Homo sapiens, UniProt P02730)
T2 chain: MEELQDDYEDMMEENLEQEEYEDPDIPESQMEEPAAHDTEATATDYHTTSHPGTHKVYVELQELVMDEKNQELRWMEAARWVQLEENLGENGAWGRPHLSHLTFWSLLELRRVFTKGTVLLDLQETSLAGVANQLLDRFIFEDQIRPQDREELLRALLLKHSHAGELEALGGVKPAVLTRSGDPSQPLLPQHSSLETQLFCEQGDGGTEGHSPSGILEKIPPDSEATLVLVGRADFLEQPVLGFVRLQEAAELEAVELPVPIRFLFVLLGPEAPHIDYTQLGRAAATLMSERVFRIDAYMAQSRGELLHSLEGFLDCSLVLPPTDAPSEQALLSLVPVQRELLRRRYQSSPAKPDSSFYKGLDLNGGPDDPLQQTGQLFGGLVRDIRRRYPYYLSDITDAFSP

Binder	Kd (CaM) [nM]	Kd [1] [nM]	Kd [2] [nM]
B1	11700	–	–
B2	–	1330	23
B3	78	–	–
